Test results from article PMC4943706.

Biological target: Factor Xa
Test: SPR; FXa immobilised by amine coupling on a CM5 chip (1455.7 RU); Lofaxin as analyte at 1.95-31.25 nM; Biacore T100, 25°C, HBS-P buffer (10 mM HEPES, 150 mM NaCl, 0.005% P20, pH 7.4); global fit to the 1:1 Langmuir model

Kd: 1.83 nM
Substance: recombinant Lofaxin (Lufaxin-like salivary protein of Bichromomyia olmeca) (natural protein)
